This note sets out measurements from patent publication US20200102349A1 (REGENTS OF THE UNIVERSITY OF MICHIGAN, published 2020).

Assay [1] addresses T1, Epidermal growth factor receptor (EGFR), human, on cells (human, UniProt P00533 25-1210).
T1 construct: whole, on cells; The expression level differs between cell lines (HT29 > SW480 > SW620); It is reduced in HT29 cells transfected with siEGFR
As to the kind of experiment: confocal fluorescence microscopy, FITC channel, OE21 cells.

In assay [2] the target is T1, Epidermal growth factor receptor …. As to the kind of experiment: apparent dissociation constant, flow cytometry on HT29 cells, 0-200 nM peptide, 4° C., R^2=0.95. On the procedure:
We measured the apparent dissociation constant of the peptide to HT29 cells as an assessment of binding affinity. QRH*-Cy5.5 was serially diluted in PBS at concentrations of 0, 10, 25, 50, 75, 100, 125, 150 and 200 nM. HT29 cells (˜10⁵) were incubated with QRH*-Cy5.5 at 4° C. for 1 hour, washed with cold PBS, and the mean fluorescence intensities were measured on flow cytometry. The equilibrium dissociation constant kd=1/kₐ was calculated by performing a least squares fit of the data to the non-linear equation I=(I₀+Iₘₐₓkₐ[X])/([…]). I₀ and Iₘₐₓ are the initial and maximum fluorescence intensities, corresponding to no peptide and at saturation, respectively, and [X] represents the concentration of the bound peptide [Thomas et al., Clin Exp Metastasis, 26:105-119 (2009)]. Origin 6.1 data analysis software (OriginLab Corp) was used to calculate kd.
(In flow cytometry, cells or beads pass a laser one at a time.)

Where no end group is shown, it is not given here. Cy5.5 = Cy5.5 fluorophore

B1: FITC labeled SHRNRPRNTQPS (SHR*) peptide (peptide)
peptide: SHRNRPRNTQPS
modifications: also: FITC label, site not given here
notes: also called SHR*-FITC; FITC-labeled peptide
For the molecule B1, the “fold fluorescence intensity against the GGG* control peptide” value in assay [1] is more than 5 fold.
On to QRHKPREGGGSK(Cy5.5)-NH2 (also called EGFR peptide) [QRH*-Cy5.5 (QRHKPRE peptide with GGGSK linker and Cy5.5 fluorophore)], for which the Kd in assay [2] amounted to 50 nM.
